Assay results taken from the DeepSol protein solubility set.

test: soluble on expression in E. coli; label from the status in PepcDB or PDB records

Row | Sequence | soluble on expression in E. coli
1 | MSPHPPQPHPPMPPMPPVTAPPGAMTPMPPVPADAQKLHQSTGNDACIKRLQQLNVEDGAKMYMKPTEPGKMGRPVDIQTNVFGIEVTKETTVHRFMVHAKADLTSTKEVTFTKKGKEDFVVQDRRDKCCNIFFLAVEKNPEFFKMKDGNQIVYDGQSTLYTTVNLFSELDANGTKSKVFQINGADTGNDDLKTLPCISLEIYAPRDNSITLSSENLGKRTADQNIEVNNREYTQFLELALNQHCVRETNRFGCFEHGKVYFLNATEEGFDQRDCVDVGDGKQLYPGLKKTIQFIEGPYGRGQNNPSLVIDGMKAAFHKEQTVIQKLFDITGQDPSNGLNNMTREKAAAVIKGLDCYSTYTNRKRHLRIEGIFHESATKTRFELPDGKTCSIAEYYADKYKISLQYPNANLVVCKDRGNNNYFPAELMTVSRNQRVTIPQQTGNQSQKTTKECAVLPDVRQRMIITGKNAVNITLENELLVALGIKVYSEPLMVQARELDGKELVYQRSVMSDMGKWRAPPGWFVKPATVPDLWAAYAVGNPGCRFSIGDVNQLVGMFIDSCKKKGMVIKPPCETGLYSTEKIMTQLEKVAASKCKYVLMITDDAIVHLHKQYKALEQRTMMIVQDMKISKANAVVKDGKRLTLENIINKTNVKLGGLNYTVSDAKKSMTDEQLIIGVGVSAPPAGTKYMMDNKGHLNPQIIGFASNAVANHEFVGDFVLAPSGQDTMASIEDVLQNSIDLFEKNRKALPKRIIIYRSGASEGSHASILAYEIPLARAIIHGYSKEIKLIFIVVTKEHSYRFFRDQLRSGGKATEMNIPPGIVLDNAVTNPACKQFFLNGHTTLQGTAKTPLYTVLADDCKAPMDRLEELTFTLCHHHQIVSLSTSIPTPLYVANEYAKRGRDLWGELTTKGPIEAKESQGERLKELTKEIGYKQTDLNQKRVNA | not soluble
2 | MSPKSKSTNKTYTIVIKLGTSSICDEKTHEPLISNLSLIVETVVKLRKLGHNVVLVSSGGIAMGLRRLDLPKRPSKLSAVQAIAAVGQGRLISLWDTLFTQLRQPIAQVLITRNDIAERSQYVNAANTISELLHFGVVPIVNENDTLSVQEIRFGDNDTLSAITAGMINADYLFLLTDVDCLYTDNPRTNPDAKPILKIHDTSMVNANVSTPGSGVGTGGMKTKLIAADLGTSSGVNVIICRGSKPSSIFDIIRQESSDNKNESVELPLHTHFVAKKQGRIRDRHFWLLHGLKSHGSLEIDRGAFEAITRTNRAGLLPVGVTKVHGHFSAHQAVTVIYNGEEIGRALVNYSSTEIDLIKGKRSKEIASILGYNETEYVAYRDYLVVHGLNSHHDSQVSSDEH | soluble
3 | MSPSLLGSSFLRSASGNFTKFASIRNAHFLSSVPMKKRGVDGNLPKDYFENKTVVVYFSAGWCGSCKFLTPKIKKFYNAVKESDAGKNLEIVWVSKDKEAAHQEEYYEKNLPDWPYIPFGDENIQKLSEKYKAVVIPVLKLVNSNGDVVHDRVRADVEAGIKADPVKTMEEWKKLLNQ | not soluble
4 | MSQAELFTISDLAREFDVTLRTIRFYEEQGLIEPQRDGRQRLFTRRDRGRLKLILRGKRIGLSLAEIREIIDMYQLARDEASQSQKLLDLLLARRRQLEAQRRDIDAVLDEIATLENHCRDVIDSQSSVA | not soluble
5 | MSQAHTPSAPLAEVYDVAVVGGGINGVGIAADAAGRGLSVFLCEQHDLAQHTSSASSKLIHGGLRYLEHYEFRLVREALAEREVLLAKAPHIVKPLRFVLPHRPHLRPAWMIRAGLFLYDHLGKREKLPASRGLRFTGSSPLKAEIRRGFEYSDCAVDDARLVVLNAISAREHGAHVHTRTRCVSARRSKGLWHLHLERSDGSLYSIRARALVNAAGPWVARFIQDDLKQKSPYGIRLIQGSHIIVPKLYEGEHAYILQNEDRRIVFAIPYLDRFTMIGTTDREYQGDPAKVAISEEETAYLLQVVNAHFKQQLAAADILHSFAGVRPLCDDESDEPSAITRDYTLSLSAGNGEPPLLSVFGGKLTTYRKLAESALTQLQPFFANLGPAWTAKAPLPGGEQMQSVEALTEQLANRYAWLDRELALRWARTYGTRVWRLLDGVNGEADLGEHLGGGLYAREVDYLCKHEWAQDAEDILWRRSKLGLFLSPSQQVRLGQYLQSEHPHRPRVHAALEHHHHHH | soluble
6 | MSQFFYIHPDNPQQRLINQAVEIVRKGGVIVYPTDSGYALGCKIEDKNAMERICRIRQLPDGHNFTLMCRDLSELSTYSFVDNVAFRLMKNNTPGNYTFILKGTKEVPRRLLQEKRKTIGMRVPSNPIAQALLEALGEPMLSTSLMLPGSEFTESDPEEIKDRLEKQVDLIIHGGYLGQKPTTVIDLTDDTPVVVREGVGDVKPFL | soluble
7 | MSQIEKKQLQLGYIPLLDCIALLWAKERGYFEEMGLDVTLVKEASWASLRDRLAFGILDAAHCLSAMLPAAAIGEDQIGIPLKTPLVLSKNRAYISLSQKLCYELSIQNADNAQENSAKLVKYLEQEQSIALAHVFHHSIHHYCLREWLALSHLDLAKAIQLKTLPPPYMLDALASASIDGFCVGEPWNTQGEIEGYSQIVASSRDIIPEVADKVLAVTEEWAAHHPNTVIALTAAILKAQQELETLSNLEPVWQILINFNIVRFQCSKSVHVKSYHALEQIIRHLVVGQAAPCSEDMLWLFGQMQKWHDLTIETTALNELSQRCIDQNSFEKAMQHVQSNTGLEHHHHHH | not soluble
8 | MSQILNVTLITETFTPEINGVANTLGRLCDGLRLRGHRVELVRPRQSDEINSGAADDLMLCRGWPIPGYPGLQWGQSSMHKLLRRWQRRRPDVLYIATEGPLGLSALRAARRLGIAVISGFHTNFPQYTQQYGMGFITRLLTHYLRWFHNRSRVTLVPSVSQKVELERRGFERIELLSRGVDSQLFNPSRCSQALRESWGLQTGDIGVIHVGRLAPEKNLGLLKTGFEALKSSYPQRTIKLIVVGDGPQRSELEQQIPDAIFCGTLRGEVLATHYASADMFLFPSLTETFGNVVLEALASGLGVVAYDEAAAGQHIRHGHNGALAMPGDETAFVDAARWLLEDSENLRRVRLNARQHASRQGWTAIIDQFERQLRDACPSESSKTLRQTSDKTIRPVSSMPLDLEHHHHHH | not soluble
9 | MSQKRQTKFQNGKSKTSENSSAKREKGMVVNSKEISDAVGQSKFVLENLRHYTVHPNLAQYYKPLKATALQKFLAQNRKNTSFMLKVTQYDQDKTLLIMTNNPPPCSITQQDKESASKYFSKELLLKVMESHHQHKPTENLWLPRMPQKKKLRSKLKPIFPLILSDDPTSKREQWFRFSTDNDFKSEGKYSKVYALRTQKKMYPQLTFAPVHERDMRKDASKKSASERPISKVIREPLTLASLLEDMPTRTAPGESAFRNGRAPQWIIKKATVIG | soluble
10 | MSQLDLLNIVHRPRRLRRTAALRNLVQENTLTVNDLVFPLFVMPGTNAVEEVSSMPGSFRFTIDRAVEECKELYDLGIQGIDLFGIPEQKTEDGSEAYNDNGILQQAIRAIKKAVPELCIMTDVALDPFTPFGHDGLVKDGIILNDETVEVLQKMAVSHAEAGADFVSPSDMMDGRIGAIREALDETDHSDVGILSYAAKYASSFYGPFRDALHSAPQFGDKSTYQMNPANTEEAMKEVELDIVEGADIVMVKPGLAYLDIVWRTKERFDVPVAIYHVSGEYAMVKAAAAKGWIDEDRVMMESLLCMKRAGADIIFTYYAKEAAKKLR | soluble
11 | MSQLVLDLKCLKDKIATNYDIHNNVYGGNGMEPNIIHPSKRFRIVVRLVDFLFCKSDEEFIKGFFCQMIVRNLHCLNSTNGAEEMRLYMSERLFSAHKDDLRLINGQVLDVRIGVWYGIHQSPPIFEIIDFKILSRNDVRDFCEFVKSPLGEKFLNISNS | not soluble
12 | MSQPYSAVADATGKAYVDIRVCDLLVQQGNMPKGLDSDFQIDGLYVVLRCQEDVRRTSCLWSTAPGACATELQSAAMQLGAAAGAYEAQSDDALVWNEMFRFVVPPALPLSTPAISPRAPHSPPSADGGDPQGGFCAPYTPPLPLSGSASGVAGGLHDIPGGIALPMSTAASGGMRAAGSSGFPVPYTPQPSSLAISTPPLHSAAAQKQPSGGGNGARATEAVASHASLFYPTIELELWRSAPLSENLLGRYKYHVPMELMQGGYALSNLDAVVERVVLLRTKDAPSIMGNLYGWSGHRLSLRLRVQAVGLAPLMAAWSPQQGSEATMTAASTIGSAAYPAPFPTGMLGNTVTGAPPYVAAGVYGAPLGTLNPVLVNLLAPLGVPTGGSGAGQLAPTVMMSMPGGMGGDNLHKPGQPPFFSMFPPASEAPADVGGKMFHPHLPGVLPATPQSSGQGILGDGDLTWQSSTTQPTVYPPYRLPR | not soluble
13 | MSQQVIIFDTTLRDGEQALQASLSVKEKLQIALALERMGVDVMEVGFPVSSPGDFESVQTIARQVKNSRVCALARCVEKDIDVAAESLKVAEAFRIHTFIATSPMHIATKLRSTLDEVIERAIYMVKRARNYTDDVEFSCEDAGRTPIADLARVVEAAINAGATTINIPDTVGYTMPFEFAGIISGLYERVPNIDKAIISVHTHDDLGLAVGNSLAAVHAGARQVEGAMNGIGERAGNCSLEEVIMAIKVRKDILNVHTAINHQEIWRTSQLVSQICNMPIPANKAIVGSGAFAHSSGIHQDGVLKNRENYEIMTPESIGLNQIQLNLTSRSGRAAVKHRMDEMGYKESEYNLDNLYDAFLKLADKKGQVFDYDLEALAFIGKQQEEPEHFRLDYFSVQSGSNDIATAAVKLACGEEVKAEAANGNGPVDAVYQAINRITDYNVELVKYSLTAKGHGKDALGQVDIVANYNGRRFHGVGLATDIVESSAKAMVHVLNNIWRATEVEKELQRKAQHNENNKETV | not soluble
14 | MSQRGLEALLRPKSIAVIGASMKPNRAGYLMMRNLLAGGFNGPVLPVTPAWKAVLGVLAWPDIASLPFTPDLAVLCTNASRNLALLEELGEKGCKTCIILSAPASQHEDLRACALRHNMRLLGPNSLGLLAPWQGLNASFSPVPIKRGKLAFISQSAAVSNTILDWAQQREMGFSYFIALGDSLDIDVDELLDYLARDSKTSAILLYLEQLSDARRFVSAARSASRNKPILVIKSGRSPAAQRLLNTTAGMDPAWDAAIQRAGLLRVQDTHELFSAVETLSHMRPLRGDRLMIISNGAAPAALALDALWSRNGKLATLSEETCQKLRDALPGHVAISNPLDLRDDASSEHYVKTLDILLHSQDFDALMVIHSPSAAAPATEIAQVLIEAVKHHPRSKYVSLLTNWCGEHSSQEARRLFSEAGLPTYRTPEGTITAFMHMVEYRRNQKQLRETPALPSNLTSNTAKAHLLLQQAIAEGATSLDTHEVQPILQSYGMNTLPTWIASDSTEAVHIAEQIGYPVALKLRSPDIPHKSEVQGVMLYLRTANEVQQAANAIFDRVKMTWPQARVHGLLVQSMANRAGAQELRVVVEHDPVFGPLIMLGEGGVEWRPEDQAVVALPPLNMNLARYLVIQGIKSKKIRARSALRPLDVAGLSQLLVQVSNLIVDCPEIQRLDIHPLLASGSEFTALDVTLDIAPFEGDNESRLAVRPYPHQLEEWVELKNGERCLFRPILPEDEPQLQQFISRVTKEDLYYRYFSEINEFTHEDLANMTQIDYDREMAFVAVRRIDQTEEILGVTRAISDPDNIDAEFAVLVRSDLKGLGLGRRLMEKLITYTRDHGLQRLNGITMPNNRGMVALARKLGFNVDIQLEEGIVGLTLNLAQREES | not soluble
15 | MSQTVNIVGAGLAGSEAAYQLAQRGIKVNLIEMRPVKQTPAHHTDKFAELVCSNSLRGNALTNGVGVLKEEMRRLDSLIISAADKARVPAGGALAVDRHDFSGYITETLRNHPNVTVINEEINSIPEGYTIIATGPLTTENLAKEIVDITGKDQLYFYDAAAPIIEKESIDMDKVYLKSRYDKGEAAYLNCPMTEEEFNRFYDAVLEAEVAPTNEFEKEKYFEGCMPFEVMAERGRKTLLFGPMKPVGLEDPKTGKRPFAVVQLRQDDAAGTLYNIVGFQTHLKWGAQKEVIRLIPGLENVDIVRYGVMHRNTFINSPDVLNEKYELIKEDRIQFAGQMTGVEGYVESAASGLVAGINLAHKLLDKGEVIFPRETMIGSMAYYISHAKNEKNFQPMNANFGLLPSLEKRIKDKKERYEAQANRALEYLENYKKTLLEHHHHHH | soluble
